Assay results: the nanobody polyreactivity screen of Harvey et al. (2022)

test: yeast display, Sf9 membrane polyspecificity reagent, FACS + sequencing; frameworks hold sequencing errors
Summary of the method: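 Synthetic nanobody libraries on Saccharomyces cerevisiae BJ5465 were galactose-induced for 36–48 hours, stained 1 hour at 4 °C with 10% biotinylated, detergent-solubilized Sf9 membrane reagent and enriched on streptavidin microbeads. FACS then separated cells into low and high (top ~1%) gates by anti-HA (expression) and streptavidin (reagent binding) fluorescence. Genes were colony-PCR amplified, MiSeq 2 × 250 sequenced and CDR-length filtered. A clone's polyreactivity label is that of its gate of origin.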

| Sequence | polyreactivity (PSR sort gate) |
| --- | --- |
| QVQQQESAGGLVQAGGSLRLSCAASGNIFVDAYMGWYRQAPGKERELVATFAPADSVKGRFTISRDNAKNTVYLQMYSLKPEDTAVYYCAAFTGYSSVFGYWGQGIQVTVSS | high polyreactivity |
| QVQQQESGGGLVQAGGSLRLSCAASGTIFQLTVMGRYRQAPGKERELVASIDYGGNTNYADSVKGRFTISRDNAKNSVYLQKNSMKPEDTEVYYCEASYESWTTHPYWGQGTQVTVSS | low polyreactivity |
| QVQQQESGGGLVQAGGSLRLSCAASGYISVVIGMGWYRQSPGKERELVASIAYGAITYYTDSVKGRFTISRDYAKNTEYLQMNSLKAEDTAVYYCAADKPPLAYHWYWGQGTQATVSS | high polyreactivity |
| QVQQQESGGGLVQAGGSLRQSYAASGYIFPSLAMGWYRQAPGKEREFVAAIGRGSTNNYADSVKGRFTISRDNAKNTAYQQMNSLKPEDTAVYYCAAAASPLTRHLYWGQGTQVTVSS | low polyreactivity |
| QVQQQESGGGLVQVGGSQRLSCAASGNIFYNYAMGWYRHAQGKEREFDATINHGTSINYADSVKGRFTISRDNAKNTVYLQMNSLKPEDTAVYYCAADLSWTDNLFYWGQGTQVTVSS | low polyreactivity |
| QVQQQESGGGMEQARGSLRLSCAASGYISWADYMGCYRQAPGKERELVAVIGYGSTTYYADSVKGRFTMSRDNAKNTAYLQMNSLKPEDTAVYYCAVGWYRDTAYKYWGQGTQVTVSS | low polyreactivity |
| QVQQVESGGGLVQAGGSLRLSCAATGIIFNDYHMGWYRQAPGKERELVAAINYSGGSTYYADSVKGRFTISRDNAKNTVYLQMNSLKPEDTAVYYCAADNAVWEYDYWGQGTQVTVSS | low polyreactivity |
| QVQQVESGGGLVQAGGSLRLSCAATGRTFALYAMGWYRLAPGKERELVAGITFRGGSTYYADSVKGRFTISRDNAKNTVYLQMNSLKPEDTAVYYCAAERWRWYYSWTMDYWGQGTQVTVSS | high polyreactivity |
| QVQREESGGGLVQAGGSLRLSGAASGIIFHPYAMGWYRQAPGKERELVAAISWSGDGTYYADSVKGRFTISRDNAKNTVYLQMNSLKPEDTAVYYCNAFSQSWNFYGDGDYWGQGTQLTVSS | low polyreactivity |
| QVQRLESRGGLVQAGGSLRLSCAASGSTFDYNAMGWYRQAPGKERELVAAITSSGGSTYYADSVKGRFTISRDNAKNNVYLQMHSLKPEDTAVYYCNADGYVPDYEYWGQGTQVTVSS | high polyreactivity |
| QVQRVDSGGGLVQAGGSLRLTCAASGSTFDKYAMGWYRQAPGKERELVAAISLSGGSTYYADSVKGRFTISRDNAKNTVYLQMNSLKPEDTAVYYCNTPPSRYVRYGIYRYDYWGQGTQVTVSS | high polyreactivity |
| QVQRVESAGGLVQAGGSLRLSCAASGRTFSGNARGWYRPAPGKERELVAGISTTGGSTYYADSVKGRFTISRDNAKNTVYLEMNSLKPADTAVYYCAAYSASNGGYDYWGQGTQVTVSS | high polyreactivity |
| QVQRVESAGGLVQAGGSLRLSCAPTGSIFSTNPMGWYSQSPGTERELVATITWSDGSTYYADSVKGRFTISRDNAKNTVYLQLNSLKPEDTAVYDCATPYKRDFYKGGDYWAQGTQVTVSS | low polyreactivity |
| QVQRVESGGGLGQAGGSLRLSCDASGRTFSGNTMGWYRQAPVKERELVAVINSGTRTYYADSVKGRFTISRDNAKNTVYLQMYSLKPEDTAGYYCATRCKSPSSKYGYWGQGTQVNVSS | high polyreactivity |
| QVQRVESGGGLVLAGGSLRLSCAASAHIFAWYAMGWYRQAPGNERELVADISSRGGSTYYADSVKGRITISRDNAKNTVYLQMNSLKPEDTAVYSCAAVCYWTQDYDYWGQGTQVTVSS | low polyreactivity |
| QVQRVESGGGLVQAAASLRLSCAASGRTFYVYTMGWYRPAPGKERELVAAITSGGSTNYADSVKGRFTISRDNAKNTVSLHMNSLKPEVTAVYYCAARVSTVFKRYYYWGQGTQVTVSS | high polyreactivity |

| Sequence | polyreactivity (PSR sort gate) |
| --- | --- |
| QVQRVESGGGLVQAGASLRLSCAASGRTFRSYTMGWYRQAPGKERELVATISGSGSTNYADSVKGRFTISRDNAKITVYLQMNSLKPEDTAVYYCAADVSLSVFKLDYWGQGTQVTVSS | low polyreactivity |
| QVQRVESGGGLVQAGCSLLLSCASSGNIFTRNAMGGYRHAPGKEREWVAAISTSGGRTYYADSVKGRFTISRDNAKNTVYLQMYSLKPEDTAVYYCAADYLSGTELYYWGQGTQVTVSS | high polyreactivity |
| QVQRVESGGGLVQAGGRLRLSFAAAGIIFKVNAMGWYRQAPGKERELVPAISWSGSSTYYADSVKGRFTISRDNAKNTVYLQMNSLKPEDTAVYYCGTRWFAVHMYWGQGTQVTVSS | high polyreactivity |
| QVQRVESGGGLVQAGGSLLLSCAASGRTFRPYTMGWYRQAPGTERELVARITSGGSTNYADSVKGSFTISRDNAKNTVYLQMNSLKPEDTAVYYCNKPGDRHRLDEDYWGQGTQVTVSS | low polyreactivity |
| QVQRVESGGGLVQAGGSLLLSCAASGRTIRHNAMGWYRPAPGKERELVAAISRSGGSTYYADSVKGRFTISRDKAKNTVYLLMNSLKPEDTAVYYCAAGYHGYDWGQGTQVTVSS | high polyreactivity |
| QVQRVESGGGLVQAGGSLRLRCAASGRTFMTNAMGWYRQAPGTERELVAAISSGASTNYADSVKGRFTISRDNAKNTVYLQMNSLNPEDTAVYYCGAQLTDYQSKTLSYDYWGQGTQVTVSS | low polyreactivity |
| QVQRVESGGGLVQAGGSLRLRCAASGSIFYQYALGWYRQARGKEREWVAAISRSGGRTYYADSVKGRFTISRDNAKNTVYLQMNSLKPEDTAVYYCAAGTSWPWYQRDYWGQGTQVTVSS | low polyreactivity |
| QVQRVESGGGLVQAGGSLRLRCAASGSILYHNTMGWYIQAPGKEREFVASISANGGSTYYADSVKGRFTISRDNAKNTVYLQMNSLKPEDTAVYYCAARVADYPLVGGSSYNRMEYWGQGTQVTVSS | low polyreactivity |
| QVQRVESGGGLVQAGGSLRLSCAASGFIFARNAMGWNRPAPGKERELVAAINQSGGITRYADSVKGRFTISRDNAKNTVYLQMNSLKPEDTAVYYCATPLYVRYDYWGQGSQVTVSS | high polyreactivity |
| QVQRVESGGGLVQAGGSLRLSCAASGFTFYRYAMGWYRQAPGKEREFVAVINIRGSTTYYADSVKGRFTISRDNAKNTVYLQMNSLKPEDTAVYYCARRYRGPYYSLPRRKEFDYWGQGTQVTVSS | high polyreactivity |
| QVQRVESGGGLVQAGGSLRLSCAASGFTLDPYAMGWYRQAPGKEREFVAAIRLSGSSTYYADSVKGRFTISRDNAKNTVYLQMNSLKPEDTAVYYCAADGISHWLYRYDYWGQGTQVTVSS | low polyreactivity |
| QVQRVESGGGLVQAGGSLRLSCAASGLIFYRYVMGWYRQAPGKETELVAAISGNGASTYYADSVKGRFTISRDNAKNTVYLQMHSLKPEDTAVYYCNADVYVSSKTHSSSPQWWGYDYWGQGTQVTVSS | low polyreactivity |
| QVQRVESGGGLVQAGGSLRLSCAASGRIFNWYVMGWKRQAPGKERELVAAINSGGITKYADSVKGRFTISRDNAKNTVYLQMNSLKPEDSAVYYCAAYYRRYDYDYWGQGTQVTVSS | high polyreactivity |
| QVQRVESGGGLVQAGGSLRLSCAASGRTFSSYDLGWYRQAPGKERELVAAITSGGSTYYADSVKGRFTISRDNAKNTVYLQMNSLKPDDTAVYYCAADIYWWCSKDYDYWGQGTQVTVSS | high polyreactivity |
| QVQRVESGGGLVQAGGSLRLSCAASGRTFTYYAMGWYRQAPGKERELVAAISSRGGSTYYADSVKGRFTISRDNAKNTVYLQMNSLKPEDTAVYYCAAVLRFTRASRWPDFDYWGQGTQVTVSS | high polyreactivity |
| QVQRVESGGGLVQAGGSLRLSCAASGSIFASNAMGWYRQAPGKERELVADISGTTGSTYYADSVKGRFTISRDNAKNTVYLQMNSLKPEDTAVYYCAADLVWVSTSYYYWGQGTQVTVSS | low polyreactivity |
